Data from paper PMC9574498 (The Journal of Biological Chemistry, 2022).

How the values were obtained:
[1] = target: the molecule itself; assay: SEC-SAXS
[2] = target: human calmodulin (Ca^2+-CaM; apo-CaM in EDTA) (human, UniProt P0DP23 1-149); assay: SEC

B1: human P2X7R ballast domain (P2X7BD, residues 395–595) (domain or fragment, UniProt Q99572 395-595, looked up)
chain: KPTLKYVSFVDESHIRMVNQQLLGRSLQDVKGQEVPRPAMDFTDLSRLPLALHDTPPIPGQPEEIQLLRKEATPRSRDSPVWCQCGSCLPSQLPESHRCLEELCCRKKPGACITTSELFRKLVLSRHVLQFLLLYQEPLLALDVDSTNSRLRHCAYRCYATWRFGSQDMADFAILPSCCRWRIRKEFPKSEGQYSGFKSPY
- stoichiometry N [1]: 3
- binding result [2]: binds
